B1: mNb‐WT [not stated] / recombinant VEGF‐A165 protein [not stated] (parent complex)
chain 1: MDVQLVESGGGLVQPGGSLRLSCAASGRTFSSYSMGWFRQAPGKEREFVVAISKGGYKYDAVSLEGRFTISRDNAKNTVYLQINSLRPEDTAVYYCASSRAYGSSRLRLADTYEYWGQGTLVTVSS
chain 2: APMAEGGGQNHHEVVKFMDVYQRSYCHPIETLVDIFQEYPDEIEYIFKPSCVPLMRCGGCCNDEGLECVPTEESNITMQIMRIKPHQGQHIGEMSFLQHNKCECRPKKDRARQENPCGPCSERRKHLFVQDPQTCKCSCKNTDSRCKARQLELNERTCRCDKPRR

Variants of: B1
Assay: ELISA; parent: 0.73 nM

| EC50 | Variant |
| --- | --- |
| 0.82 nM | chain 1 MDVQLVEAGGGLVQPGGSLRLSCAASGRTFSSYSMGWFRQAPGKEREFVVAISKGGYKYDAVSLEGRFTISRDNAKNTVYLQINSLRPEDTAVYYCASSRAYGSSRLRLADTYEYWGQGTLVTVSS [chain 1 S8A] |
| 0.79 nM | chain 1 MDVQLVESGGGLVQPGGSLRLSCAASGRTFSSYSMGWFRQAPGKAREFVVAISKGGYKYDAVSLEGRFTISRDNAKNTVYLQINSLRPEDTAVYYCASSRAYGSSRLRLADTYEYWGQGTLVTVSS [chain 1 E45A] |
| 0.8 nM | chain 1 MDVQLVESGGGLVQPGGSLRLSCAASGRTFSSYSMGWFRQAPGKEREFVVAISKGGYKYDAVSLEGRFTISRDNAKNTVYLQINSLRPEDTAVYFCASSRAYGSSRLRLADTYEYWGQGTLVTVSS [chain 1 Y95F] |
| 0.77 nM | chain 1 MDVQLVESGGGLVNPGGSLRLSCAASGRTFSSYSMGWFRQAPGKEREFVVAISKGGYKYDAVSLEGRFTISRDNAKNTVYLQINSLRPEDTAVYYCASSRAYGSSRLRLADTYEYWGQGTLVTVSS [chain 1 Q14N] |
| 0.91 nM | chain 1 MDVQLVESGGGLVQPGGSLRLSCAASGRTFSSYSMGWFRQAPGAAREFVVAISKGGYKYDAVSLEGRFTISRDNAKNTVYLQINSLRPEDTAVYYCASSRAYGSSRLRLADTYEYWGQGTLVTVSS [chain 1 K44A, chain 1 E45A] |
| 0.62 nM | chain 1 MDVQLVESGGGLVQPGGSLRLSCAASGRTFSSYSMGWFRQAPGAEREFVVAISKGGYKYDAVSLEGRFTISRDNAKNTVYLQINSLRPEDTAVYYCASSRAYGSSRLRLADTYEYWGQGTLVTVSS [chain 1 K44A] |
| 0.77 nM | chain 1 MDVQLVESGGGLVQPGGSLRLSCAASGRTFSSYSMGWFRQAPGKEREFVVAISKGGYKYDAVSLEGRFTISRDNAKNTVYLQINSLRPEDTAVYYCASSRAYGSSRLRLADTYEYWGNGTLVTVSS [chain 1 Q118N] |
